PMC11574021, “CEP192 localises mitotic Aurora-A activity by priming its interaction with TPX2” (The EMBO Journal, 2024)

Assays:
[1] = target: Aurora-A KD F165D/R205A; assay: ITC, CEP192 with Aurora-A KD F165D/R205A; type: binding, human; settings: 25 °C, pH 7.5
Experimental: (§1) Thermodynamic information was established using the ITC200 microcalorimeter (MicroCal, Northampton, MA). Proteins were dialysed overnight into 20 mM tris pH 7.5, 200 mM NaCl, 10% glycerol, 5 mM magnesium chloride (CEP192 constructs/mutants and Aurora-A 122–403 mutants). Experiments were carried out at 25 °C. The syringe contained 70 μl of 250 μM Aurora-A 122–403 (D274N C290A C393A or mutant). About 2 μl injections were applied every 180 s. The cell contained 205 μl of 25 μM CEP192 construct/mutant. Microcal Origin software version 7.0 was used to determine the dissociation constants (Kd). All measurements were repeated at least twice.

[2] = target: T1, unphosphorylated Aurora-A CAKD (Homo sapiens, UniProt O14965, C290A/C393A); assay: Fluorescence anisotropy competition with FAM-TPX2 7-43; type: binding; settings: for IC50: competition with 100 nM FAM-TPX2 7-43, 10 μM unphosphorylated Aurora-A CAKD, n = 3 (Appendix Fig. S4E)
T1 construct: 10 μM Aurora-A kinase domain (phosphorylated or unphosphorylated C290A C393A 122–403); His (N, cleaved yes); made in house; host or cells: E. coli RIL, co-expressed with lambda phosphatase
T1 sequence (O14965 122-403 C290A/C393A): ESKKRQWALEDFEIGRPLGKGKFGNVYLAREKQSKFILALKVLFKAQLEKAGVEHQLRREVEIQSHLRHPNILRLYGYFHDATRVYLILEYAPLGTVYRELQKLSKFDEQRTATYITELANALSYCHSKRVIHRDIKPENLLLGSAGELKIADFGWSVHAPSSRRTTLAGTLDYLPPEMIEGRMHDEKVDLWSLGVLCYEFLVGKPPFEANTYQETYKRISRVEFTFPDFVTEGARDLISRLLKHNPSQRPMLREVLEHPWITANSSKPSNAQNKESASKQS
Experimental: (§2) Assays were performed in 25 mM HEPES pH 7.5, 150 mM NaCl, 2 mM DTT, 5 mM MgCl2, 0.01% Tween 20. For CEP192 and TPX2 competition assays 10 μM Aurora-A kinase domain (phosphorylated or unphosphorylated C290A C393A 122–403) was preincubated on ice with 100 nM FAM-TPX2 7-43 or 100 nM FAM-CEP192 501–533. For TACC3 competition, due to weaker binding, 25 μM Aurora-A kinase domain (phosphorylated or unphosphorylated C290A C393A 122–403) was preincubated with 100 nM FAM-TACC3 522-536. Serial dilutions of competitor (CEP192) were performed in triplicate into a low volume 384-well black plate, before the premixed Aurora-A and tracer were added. A control row included no tracer. Plates were left incubating for 1 h at room temperature before the fluorescence anisotropy was measured using a HIDEX plate reader, with excitation at 485 nm and emission at 535 nm. For direct binding experiments, the assay was performed as above, but the Aurora-A (122–403 C290A C393A or point mutants) was diluted across the plate from high to low concentration, before the addition of 50 nM tracer (FAM-CEP192 501–533) to three replicate rows. Buffer only was added to the control row.
(§3) Fluorescence anisotropy data were processed using Microsoft Excel to calculate intensity and anisotropy using the equation listed in (Yeo et al, [2013]). The IC50 and Kd values were calculated using Origin (OriginLab) where the data fitted to a sigmoid and are summarised in Appendix Table S3.

[3] = target: T2, phosphorylated Aurora-A CAKD (Homo sapiens, UniProt O14965, C290A/C393A); assay: ADP-Glo kinase assay, kemptide substrate; type: biochemical; settings: ADP-Glo, phosphorylated Aurora-A CAKD, kemptide; in words
T2 construct: 10 nM Aurora-A 122–403 C290A C393A phosphorylated protein; His (N, cleaved yes); made in house; host or cells: E. coli B834 (no lambda phosphatase)
T2 sequence (O14965 122-403 C290A/C393A): T1 sequence (O14965 122-403 C290A/C393A)
Experimental: Reactions were initiated by the addition of 10 μM ATP and 100 μM kemptide as substrate (Cambridge Bioscience Ltd). The reactions were incubated at room temperature for 60 min before 5 μl was transferred into 5 ul of ADP-Glo Reagent (Promega) in a 384-well low volume low binding plate (Greiner Bio-one). After a further 40 min at room temperature, 10 μl of kinase detection reagent was added to each well, and the reaction was allowed to incubate for an additional 30 min. Luminescence was measured on a HIDEX Sense plate reader (HIDEX) using a 1 s integration time. Control data was subtracted from the luminescence and three repeats were averaged before being fitted to a sigmoidal plot using Origin (OriginLab), where IC50 and EC50 values were calculated.

[4] = target: T3, Aurora-A CAKD (Homo sapiens, UniProt O14965, C290A/C393A); assay: Fluorescence anisotropy competition with FAM-TACC3 522-536; type: binding; settings: in words
T3 construct: 25 μM Aurora-A kinase domain (phosphorylated or unphosphorylated C290A C393A 122–403); His (N, cleaved yes); made in house; host or cells: E. coli
T3 sequence (O14965 122-403 C290A/C393A): T1 sequence (O14965 122-403 C290A/C393A)
Experimental: as §2, with “For direct binding experiments, the assay was performed as above, but the Aurora-A (122–403 C290A C393A or point mutants) was diluted across the plate from high to low concentration, before the addition of 50 nM tracer (FAM-CEP192 501–533) to three replicate rows. Buffer only was added to the control row.” left out
as §3

[5] = target: T2, phosphorylated Aurora-A CAKD; assay: Fluorescence anisotropy competition with FAM-CEP192 501-533, phosphorylated Aurora-A; type: binding; settings: competition with 100 nM FAM-CEP192 501-533, 10 μM phosphorylated Aurora-A CAKD, n = 3
Experimental: as §2, §3

[6] = target: T1, unphosphorylated Aurora-A CAKD; assay: Fluorescence anisotropy competition with FAM-CEP192 501-533, unphosphorylated Aurora-A; type: binding
Experimental: as §2, §3

[7] = target: T2, phosphorylated Aurora-A CAKD; assay: ITC, CEP192 with phosphorylated Aurora-A CAKD; type: binding; settings: ratio of Kd, phosphorylated vs unphosphorylated
Experimental: as §1

Kd [1]: 26 ± 16 µM | IC50 [2]: 3.24 µM | IC50 ([2]; listed as WT CEP192): ~4 µM | competition for binding with FAM-TPX2 7-43 ([2]; in words, Aurora-A CAKD): competed for binding with FAM-TPX2_7-43 | IC50 [5]: 0.63 µM | IC50 ([6]; competition with 100 nM FAM-CEP192 501-533, 10 μM unphosphorylated Aurora-A CAKD, n = 3): 1.42 µM | ability to compete for binding, phosphorylated vs unphosphorylated Aurora-A ([6]; competition with FAM-CEP192 501-533, in words): No significant difference | difference in affinity compared to unphosphorylated Aurora-A [7]: around a twofold difference in affinity
B1: CEP192 468-533: recombinant human CEP192 aa 468–533, minimal binding region (protein)
chain: PQSVVYQNEEGRWVTDLAYYTSFNSKQNLNVSLSDEMNEDFRSGSEAFDLIAQDEEEFNKEHQFIQ
modifications: left off: His6, N-terminal, cleaved | SUMO, N-terminal, cleaved
effect on Aurora-A kinase activity [3]: partially inhibited the activity | competition for binding with FAM-TACC3 522-536 [4]: competed for binding with FAM-TACC3_522-536
